# In US20190225650A1, “PEPTIDOMIMETIC MACROCYCLES AND USE THEREOF IN REGULATING HIF1ALPHA” (AILERON THERAPEUTICS, INC., priority 2013, published 2019):
# Bridge positions count the residues as written; N and C are the ends. Square brackets hold non-standard residues; d marks the D form. S5 = C=CCCC[C@](C)(N)C(=O)O; Nle = CCCC[C@H](N)C(=O)O
# Molecular target: T1, His6-tagged p300 (AA 323-423) (UniProt Q09472 323-423)
# T1 construct: range 323-423; also called p300-CH; not shown: His6 tag
# Assay: TR-FRET HIF1a/p300 displacement; grade = IC50 >700 nM
# Procedure: The ability of peptides to displace HIF1α c-terminal trans-activation domain from p300-CH was measured by a TR FRET assay. […] The complex was diluted to 300 nM final in complete assay media and competitor peptides were added. The complete assay media contained 150 mM NaCl (Sigma +S5150 or equivalent), 20 mM HEPES pH 7.4 (Boston Bioproducts, Ashland, Mass.; #BB-2076), 7.5 mM CHAPS (Thermo #28300 or equivalent), and 1 mM DTT. Protein and peptide were incubated at room temperature for 1 hour before the addition of anti-Flag-K and anti-6×HIS-D2 (CisBio, Bedford Mass.) HTRF reconstitution buffer (50 mM Phosphate pH 7, 0.8 Potassium Flouride, BSA 0.2%)¹ to a final concentration of 0.5 μM and 4 nM respectively. The reaction continued for an additional two hours at room temperature. The reaction was read on a TECAN F500 plate reader with settings recommended by CisBio. The ratio of donor to acceptor fluorescence was calculated. The resulting data was analyzed with Graphpad Prism 5.0. IC50 values were calculated for both proteins using the One Site Fit-LogIC50 equation and presented in the column “IC₅₀ (nM) (HIF1α_p300 Displacement+CHAPS)” of Table 6. ¹ Cisbio USA, Bedford, Mass.; 61HISDLB (lot 007A), 61FG2KLB (024A), HTRF Buffer (62RB3RDF)
# T1 sequence (Q09472 323-423 limits assumed): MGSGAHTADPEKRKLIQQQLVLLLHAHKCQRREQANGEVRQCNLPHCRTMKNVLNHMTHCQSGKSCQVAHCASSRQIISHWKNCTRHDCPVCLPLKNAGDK
row,IC50,Binder
1,> 700 nM,Ac-FIDEEVLD[S5]LVI[S5][Nle]ALDRI-NH2 (staple 9-13; SMILES CCCC[C@H](NC(=O)[C@]1(C)CCCC=CCCC[C@](C)(NC(=O)[C@H](CC(=O)O)NC(=O)[C@H](CC(C)C)NC(=O)[C@@H](NC(=O)[C@H](CCC(=O)O)NC(=O)[C@H](CCC(=O)O)NC(=O)[C@H](CC(=O)O)NC(=O)[C@@H](NC(=O)[C@H](Cc2ccccc2)NC(C)=O)[C@@H](C)CC)C(C)C)C(=O)N[C@@H](CC(C)C)C(=O)N[C@@H](C(C)C)C(=O)N[C@@H]([C@@H](C)CC)C(=O)N1)C(=O)N[C@@H](C)C(=O)N[C@@H](CC(C)C)C(=O)N[C@@H](CC(=O)O)C(=O)N[C@@H](CCCNC(=N)N)C(=O)N[C@H](C(N)=O)[C@@H](C)CC) [SP-34]
2,> 700 nM,Ac-FIDEEDL[Nle][S5]LVI[S5][Nle]ALDRI-NH2 (staple 9-13; SMILES CCCC[C@H](NC(=O)[C@H](CC(C)C)NC(=O)[C@H](CC(=O)O)NC(=O)[C@H](CCC(=O)O)NC(=O)[C@H](CCC(=O)O)NC(=O)[C@H](CC(=O)O)NC(=O)[C@@H](NC(=O)[C@H](Cc1ccccc1)NC(C)=O)[C@@H](C)CC)C(=O)N[C@@]1(C)CCCC=CCCC[C@@](C)(C(=O)N[C@@H](CCCC)C(=O)N[C@@H](C)C(=O)N[C@@H](CC(C)C)C(=O)N[C@@H](CC(=O)O)C(=O)N[C@@H](CCCNC(=N)N)C(=O)N[C@H](C(N)=O)[C@@H](C)CC)NC(=O)[C@H]([C@@H](C)CC)NC(=O)[C@H](C(C)C)NC(=O)[C@H](CC(C)C)NC1=O) [SP-32]
3,> 700 nM,Ac-FEDEEVL[Nle][S5]LVI[S5][Nle]ALDRI-NH2 (staple 9-13; SMILES CCCC[C@H](NC(=O)[C@H](CC(C)C)NC(=O)[C@@H](NC(=O)[C@H](CCC(=O)O)NC(=O)[C@H](CCC(=O)O)NC(=O)[C@H](CC(=O)O)NC(=O)[C@H](CCC(=O)O)NC(=O)[C@H](Cc1ccccc1)NC(C)=O)C(C)C)C(=O)N[C@@]1(C)CCCC=CCCC[C@@](C)(C(=O)N[C@@H](CCCC)C(=O)N[C@@H](C)C(=O)N[C@@H](CC(C)C)C(=O)N[C@@H](CC(=O)O)C(=O)N[C@@H](CCCNC(=N)N)C(=O)N[C@H](C(N)=O)[C@@H](C)CC)NC(=O)[C@H]([C@@H](C)CC)NC(=O)[C@H](C(C)C)NC(=O)[C@H](CC(C)C)NC1=O) [SP-31]
4,> 700 nM,Ac-EIDEEVL[Nle][S5]LVI[S5][Nle]ALDRI-NH2 (staple 9-13; SMILES CCCC[C@H](NC(=O)[C@H](CC(C)C)NC(=O)[C@@H](NC(=O)[C@H](CCC(=O)O)NC(=O)[C@H](CCC(=O)O)NC(=O)[C@H](CC(=O)O)NC(=O)[C@@H](NC(=O)[C@H](CCC(=O)O)NC(C)=O)[C@@H](C)CC)C(C)C)C(=O)N[C@@]1(C)CCCC=CCCC[C@@](C)(C(=O)N[C@@H](CCCC)C(=O)N[C@@H](C)C(=O)N[C@@H](CC(C)C)C(=O)N[C@@H](CC(=O)O)C(=O)N[C@@H](CCCNC(=N)N)C(=O)N[C@H](C(N)=O)[C@@H](C)CC)NC(=O)[C@H]([C@@H](C)CC)NC(=O)[C@H](C(C)C)NC(=O)[C@H](CC(C)C)NC1=O) [SP-30]
5,> 700 nM,Ac-FIDEEVE[Nle][S5]LVI[S5][Nle]ALDRI-NH2 (staple 9-13; SMILES CCCC[C@H](NC(=O)[C@H](CCC(=O)O)NC(=O)[C@@H](NC(=O)[C@H](CCC(=O)O)NC(=O)[C@H](CCC(=O)O)NC(=O)[C@H](CC(=O)O)NC(=O)[C@@H](NC(=O)[C@H](Cc1ccccc1)NC(C)=O)[C@@H](C)CC)C(C)C)C(=O)N[C@@]1(C)CCCC=CCCC[C@@](C)(C(=O)N[C@@H](CCCC)C(=O)N[C@@H](C)C(=O)N[C@@H](CC(C)C)C(=O)N[C@@H](CC(=O)O)C(=O)N[C@@H](CCCNC(=N)N)C(=O)N[C@H](C(N)=O)[C@@H](C)CC)NC(=O)[C@H]([C@@H](C)CC)NC(=O)[C@H](C(C)C)NC(=O)[C@H](CC(C)C)NC1=O) [SP-33]
6,> 700 nM,Ac-FIDEEVLA[S5]LVI[S5]AALDRI-NH2 (staple 9-13; SMILES CC[C@H](C)[C@H](NC(=O)[C@H](CCCNC(=N)N)NC(=O)[C@H](CC(=O)O)NC(=O)[C@H](CC(C)C)NC(=O)[C@H](C)NC(=O)[C@H](C)NC(=O)[C@]1(C)CCCC=CCCC[C@](C)(NC(=O)[C@H](C)NC(=O)[C@H](CC(C)C)NC(=O)[C@@H](NC(=O)[C@H](CCC(=O)O)NC(=O)[C@H](CCC(=O)O)NC(=O)[C@H](CC(=O)O)NC(=O)[C@@H](NC(=O)[C@H](Cc2ccccc2)NC(C)=O)[C@@H](C)CC)C(C)C)C(=O)N[C@@H](CC(C)C)C(=O)N[C@@H](C(C)C)C(=O)N[C@@H]([C@@H](C)CC)C(=O)N1)C(N)=O) [SP-26]

# The remaining lines, values behind:
row,Binder,IC50
1,Ac-FIAEEVL[Nle][S5]LVI[S5][Nle]ALDRI-NH2 (staple 9-13; SMILES CCCC[C@H](NC(=O)[C@H](CC(C)C)NC(=O)[C@@H](NC(=O)[C@H](CCC(=O)O)NC(=O)[C@H](CCC(=O)O)NC(=O)[C@H](C)NC(=O)[C@@H](NC(=O)[C@H](Cc1ccccc1)NC(C)=O)[C@@H](C)CC)C(C)C)C(=O)N[C@@]1(C)CCCC=CCCC[C@@](C)(C(=O)N[C@@H](CCCC)C(=O)N[C@@H](C)C(=O)N[C@@H](CC(C)C)C(=O)N[C@@H](CC(=O)O)C(=O)N[C@@H](CCCNC(=N)N)C(=O)N[C@H](C(N)=O)[C@@H](C)CC)NC(=O)[C@H]([C@@H](C)CC)NC(=O)[C@H](C(C)C)NC(=O)[C@H](CC(C)C)NC1=O) [SP-11],> 700 nM
2,FIDEEVLLALVIAAALDRI (not fully specified; Ac-FIDEEVL-Nle-$-LVI-$-AALDRI-NH2) [SP-20],> 700 nM
3,Ac-FIDEEVLA[S5]LVI[S5][Nle]ALDRI-NH2 (staple 9-13; SMILES CCCC[C@H](NC(=O)[C@]1(C)CCCC=CCCC[C@](C)(NC(=O)[C@H](C)NC(=O)[C@H](CC(C)C)NC(=O)[C@@H](NC(=O)[C@H](CCC(=O)O)NC(=O)[C@H](CCC(=O)O)NC(=O)[C@H](CC(=O)O)NC(=O)[C@@H](NC(=O)[C@H](Cc2ccccc2)NC(C)=O)[C@@H](C)CC)C(C)C)C(=O)N[C@@H](CC(C)C)C(=O)N[C@@H](C(C)C)C(=O)N[C@@H]([C@@H](C)CC)C(=O)N1)C(=O)N[C@@H](C)C(=O)N[C@@H](CC(C)C)C(=O)N[C@@H](CC(=O)O)C(=O)N[C@@H](CCCNC(=N)N)C(=O)N[C@H](C(N)=O)[C@@H](C)CC) [SP-16],> 700 nM
4,FIDEEVLLALVIALALARI (not fully specified; Ac-FIDEEVL-Nle-$-LVI-$-Nle-ALARI-NH2) [SP-23],> 700 nM
5,Ac-FIDEEAL[Nle][S5]LVI[S5][Nle]ALDRI-NH2 (staple 9-13; SMILES CCCC[C@H](NC(=O)[C@H](CC(C)C)NC(=O)[C@H](C)NC(=O)[C@H](CCC(=O)O)NC(=O)[C@H](CCC(=O)O)NC(=O)[C@H](CC(=O)O)NC(=O)[C@@H](NC(=O)[C@H](Cc1ccccc1)NC(C)=O)[C@@H](C)CC)C(=O)N[C@@]1(C)CCCC=CCCC[C@@](C)(C(=O)N[C@@H](CCCC)C(=O)N[C@@H](C)C(=O)N[C@@H](CC(C)C)C(=O)N[C@@H](CC(=O)O)C(=O)N[C@@H](CCCNC(=N)N)C(=O)N[C@H](C(N)=O)[C@@H](C)CC)NC(=O)[C@H]([C@@H](C)CC)NC(=O)[C@H](C(C)C)NC(=O)[C@H](CC(C)C)NC1=O) [SP-14],> 700 nM
6,Ac-FIDAEVL[Nle][S5]LVI[S5][Nle]ALDRI-NH2 (staple 9-13; SMILES CCCC[C@H](NC(=O)[C@H](CC(C)C)NC(=O)[C@@H](NC(=O)[C@H](CCC(=O)O)NC(=O)[C@H](C)NC(=O)[C@H](CC(=O)O)NC(=O)[C@@H](NC(=O)[C@H](Cc1ccccc1)NC(C)=O)[C@@H](C)CC)C(C)C)C(=O)N[C@@]1(C)CCCC=CCCC[C@@](C)(C(=O)N[C@@H](CCCC)C(=O)N[C@@H](C)C(=O)N[C@@H](CC(C)C)C(=O)N[C@@H](CC(=O)O)C(=O)N[C@@H](CCCNC(=N)N)C(=O)N[C@H](C(N)=O)[C@@H](C)CC)NC(=O)[C@H]([C@@H](C)CC)NC(=O)[C@H](C(C)C)NC(=O)[C@H](CC(C)C)NC1=O) [SP-12],> 700 nM
7,Ac-FIDEEVA[Nle][S5]LVI[S5][Nle]ALDRI-NH2 (staple 9-13; SMILES CCCC[C@H](NC(=O)[C@H](C)NC(=O)[C@@H](NC(=O)[C@H](CCC(=O)O)NC(=O)[C@H](CCC(=O)O)NC(=O)[C@H](CC(=O)O)NC(=O)[C@@H](NC(=O)[C@H](Cc1ccccc1)NC(C)=O)[C@@H](C)CC)C(C)C)C(=O)N[C@@]1(C)CCCC=CCCC[C@@](C)(C(=O)N[C@@H](CCCC)C(=O)N[C@@H](C)C(=O)N[C@@H](CC(C)C)C(=O)N[C@@H](CC(=O)O)C(=O)N[C@@H](CCCNC(=N)N)C(=O)N[C@H](C(N)=O)[C@@H](C)CC)NC(=O)[C@H]([C@@H](C)CC)NC(=O)[C@H](C(C)C)NC(=O)[C@H](CC(C)C)NC1=O) [SP-15],> 700 nM
